These results are taken from paper PMC2139871.

In test [1] the target is cytoplasmic dynein 74-kD intermediate chain (mouse (endogenous in J774)) (UniProt O88487). The test can be described thus: co-IP.
The target in test [2] is actin-related protein Arp1 of the dynactin complex (mouse (endogenous in J774)) (UniProt P61164). Kind of test: co-IP.
Sequence of UniProt P61164 (P61164 whole entry, one chain of several): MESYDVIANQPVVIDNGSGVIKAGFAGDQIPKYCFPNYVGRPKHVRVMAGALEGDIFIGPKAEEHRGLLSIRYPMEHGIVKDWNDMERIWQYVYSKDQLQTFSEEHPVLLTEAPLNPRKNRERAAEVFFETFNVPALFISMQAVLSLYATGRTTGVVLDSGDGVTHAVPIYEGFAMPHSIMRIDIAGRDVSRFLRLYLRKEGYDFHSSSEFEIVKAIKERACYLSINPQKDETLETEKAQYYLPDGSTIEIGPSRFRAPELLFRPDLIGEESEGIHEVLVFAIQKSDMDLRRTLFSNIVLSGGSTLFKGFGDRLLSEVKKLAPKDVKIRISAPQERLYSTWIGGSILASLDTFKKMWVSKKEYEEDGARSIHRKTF

Sequence of UniProt O88487 (O88487 whole entry): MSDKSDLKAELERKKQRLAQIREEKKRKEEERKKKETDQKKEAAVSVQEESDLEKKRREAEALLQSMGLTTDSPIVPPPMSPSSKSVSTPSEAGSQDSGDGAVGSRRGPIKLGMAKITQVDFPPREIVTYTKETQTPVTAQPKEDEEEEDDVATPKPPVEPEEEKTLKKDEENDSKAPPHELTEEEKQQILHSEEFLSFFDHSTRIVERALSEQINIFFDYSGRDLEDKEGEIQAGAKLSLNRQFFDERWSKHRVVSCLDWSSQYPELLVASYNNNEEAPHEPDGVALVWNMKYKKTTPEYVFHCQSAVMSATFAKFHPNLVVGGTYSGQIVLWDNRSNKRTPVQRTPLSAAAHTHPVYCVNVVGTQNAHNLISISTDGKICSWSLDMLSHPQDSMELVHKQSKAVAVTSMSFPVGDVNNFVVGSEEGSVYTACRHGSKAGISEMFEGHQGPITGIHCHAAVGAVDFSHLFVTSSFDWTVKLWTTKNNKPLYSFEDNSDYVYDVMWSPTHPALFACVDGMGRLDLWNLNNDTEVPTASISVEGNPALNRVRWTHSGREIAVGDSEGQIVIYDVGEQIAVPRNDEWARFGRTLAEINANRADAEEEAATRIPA

In turn, “cytoplasmic dynein heavy chain (from UniProt Q9JHU4 1-4644) (natural protein)” returned a percent removed from cytosol by immunodepletion of the bait in test [1] of 80%.

“dynactin subunit p150^Glued (from UniProt O08788 1-1281) (natural protein)” displayed a percent removed from cytosol by immunodepletion of the bait in test [2] of 95%.
